Results on 1 substance are retold here after paper PMC8916728.

For assay [1], the target named is NRP2 a2b1b2 (human neuropilin 2 residues 145 to 595, monomeric IgG1 Fc tag) (human) (UniProt O60462). Nature of the assay: BLI.
For assay [2], the target named is monoFc-tagged NRP2 (human neuropilin 2 a1a2b1b2, residues 23 to 595) (human) (UniProt O60462). Nature of the assay: BLI.
Sequence of monoFc-tagged NRP2 (human neuropilin 2 a1a2b1b2, residues 23 to 595) (human) (O60462 23-595): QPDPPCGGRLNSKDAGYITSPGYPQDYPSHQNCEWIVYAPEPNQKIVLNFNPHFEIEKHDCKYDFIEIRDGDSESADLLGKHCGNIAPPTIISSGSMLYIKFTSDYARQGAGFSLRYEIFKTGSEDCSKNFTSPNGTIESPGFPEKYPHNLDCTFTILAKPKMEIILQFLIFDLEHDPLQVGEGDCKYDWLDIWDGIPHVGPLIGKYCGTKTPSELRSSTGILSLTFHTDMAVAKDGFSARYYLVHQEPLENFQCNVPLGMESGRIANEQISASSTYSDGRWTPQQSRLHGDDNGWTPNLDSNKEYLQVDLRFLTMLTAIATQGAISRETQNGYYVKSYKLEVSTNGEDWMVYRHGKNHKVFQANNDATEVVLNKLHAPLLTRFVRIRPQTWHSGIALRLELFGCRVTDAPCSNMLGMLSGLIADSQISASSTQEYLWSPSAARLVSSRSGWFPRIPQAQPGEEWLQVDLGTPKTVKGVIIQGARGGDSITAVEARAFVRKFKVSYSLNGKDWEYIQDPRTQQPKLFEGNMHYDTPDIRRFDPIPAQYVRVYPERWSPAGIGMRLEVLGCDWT

Sequence of NRP2 a2b1b2 (human neuropilin 2 residues 145 to 595, monomeric IgG1 Fc tag) (human) (O60462 145-595): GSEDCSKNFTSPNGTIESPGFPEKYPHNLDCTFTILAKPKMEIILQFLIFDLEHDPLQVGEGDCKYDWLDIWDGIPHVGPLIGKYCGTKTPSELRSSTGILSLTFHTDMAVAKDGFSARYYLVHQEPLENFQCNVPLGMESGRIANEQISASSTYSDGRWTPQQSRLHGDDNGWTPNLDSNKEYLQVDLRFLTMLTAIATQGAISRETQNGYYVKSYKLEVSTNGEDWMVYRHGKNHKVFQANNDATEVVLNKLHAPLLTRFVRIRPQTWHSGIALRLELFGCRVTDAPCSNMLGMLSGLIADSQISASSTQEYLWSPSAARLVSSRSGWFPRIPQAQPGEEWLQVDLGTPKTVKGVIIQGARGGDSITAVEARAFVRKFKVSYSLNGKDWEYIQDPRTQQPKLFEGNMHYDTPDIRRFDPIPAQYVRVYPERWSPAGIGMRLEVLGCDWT

Turning to “soluble ectodomain of the HCMV Pentamer (strain Towne) (from UniProt P17176 24-718) (complex)”, the results for the equilibrium dissociation constant (Kd) in assay [1] and in assay [2] were 7.9 nM and 2.2 nM, respectively.
